Reference: the supplement of paper PMC11865577

How the values were obtained:
Experiment in all cases: pull-down binding Z-score (relative to library population); higher = stronger binding
Details in all cases: RNA library: Library-2
[1] = system: TO-3-N3 (biotin conjugate)
Procedure, shortened: (§1)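 Binding is given as a Z-score against the library mean and standard deviation, calculated after removing the beads-only signal and averaging barcoded replicate probes without their highest and lowest values. Cy5- or Cy3-end-labelled RNA library (1 μg) was heat-folded in phosphate/NaCl/KCl buffer and incubated 60 min at 25 °C with streptavidin beads bearing 100 pmol of biotin-conjugated small molecule. After three washes, RNA eluted in hot SDS was hybridised to a DNA barcode microarray for 20 h at 55.5 °C.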

TO-N3 (biotin conjugate) = system: TO-N3 (biotin conjugate)
Procedure, shortened: as §1

[2] = system: TO-3-N3-2 (biotin conjugate)
Procedure, shortened: as §1

[3] = system: TO-N3-2 (biotin conjugate)
Procedure, shortened: as §1

Sequence | pull-down binding Z-score [1] | pull-down binding Z-score (TO-N3 (biotin conjugate)) | pull-down binding Z-score [2] | pull-down binding Z-score [3]
UGCUGAGGCUUCUAAGAAGCCUCGGCA | 0.0854 | -0.224 | -0.197 | -1.28
CAUAGAUUAUGACUGUG [SHAPE_invivo_SARS-CoV-2_Motif_206] | -0.165 | -0.396 | -0.373 | -0.826
GGACUUGAAAGAGCC | -0.384 | -0.45 | -0.442 | -0.676
GGCGAUUUUGUUAAAGCCACUUGCGAAUUUUGUGGCACUGAGAAUUUGACUAAAGAAGGUGCCACUACUUGUGGUUACUUACCCCAAAAUGCU | 0.452 | 0.66 | 0.278 | 0.59
ACAACCCUUAAGGGUGU [SHAPE_invivo_SARS-CoV-2_Motif_115] | -0.802 | -1.19 | -0.665 | -1.1
UCUUGCCGAAUACCAUAAUGAAUCUGGCUUGA [SHAPE_invivo_SARS-CoV-2_Motif_27] | -0.617 | -0.631 | -0.354 | 0.0939
UCCCAGUUUUGGGG [IAV_invivo_PB1_2_Motif_27+IAV_invivo_PB1_2_Motif_27] | -0.953 | -1.36 | -0.902 | -1.6
CAACAAUGUGUGAUAUCAGACAACUACUAUUUGUAGUUGAAGUUGUUG | -0.133 | -0.104 | 0.0207 | -0.217
GGCUGGUGGCACUACUGAAAUGCUAGCGAAAGCUUUGAGAAAAGUGCCAACAGAC | 0.234 | 0.418 | -0.33 | 0.4
AAGUUAAUUUUCCUCUGGCUGUUAUGGCCAGUAACUU [SHAPE_invivo_SARS-CoV-2_Motif_506] | -0.74 | -1.02 | -0.439 | -0.963
GUUGGAUAAUGAUGCACUCAACAACAUUAUCAAC | -0.974 | -1.35 | -0.75 | -0.9
UCCUCAGUUUUACAUUCAACUCAGGA | -0.555 | -0.757 | -0.225 | -0.699
GGUCUGCAGGACU [IAV_invivo_PA_3_Motif_27+IAV_invivo_PA_3_Motif_27] | 0.0311 | -0.125 | -0.237 | -0.231
AACUGUGAUGUUGUAAUAGGAAUUGUCAACAACACAGUU | -0.296 | -0.618 | -0.0554 | -1
AAUAUUGCUUUGCUUGUACAGUAAGUGACAACAGAUGUUUCAUCUCGUUGACUUUCAGGUUACUAUAGCAGAGAUAUU [DMSMaPseq_invitro_SARS-CoV-2_Motif_488] | -0.135 | -0.0703 | 0.152 | 0.237
AGGUUGGACAGCUGGUGCUGCAGCUU [SHAPE_invivo_SARS-CoV-2_Motif_420] | 0.658 | 0.754 | 0.159 | 0.891
GGGCUAGAUUCCC [DMSMaPseq_invitro_SARS-CoV-2_Motif_228] | -0.623 | -0.867 | -0.264 | -0.533
GAUUUGUCUUCUACAAUUUGCCUAUGCCAACAGGAAUAGGUUUUUGUAUAUAAUUAAGUUAAUUUUCCUCUGGCUGUUAUGGCCAGUAACUUUAGCUUGUUU | -0.15 | -0.372 | -0.102 | -0.904
UGUCAUUACUUCAGGUGAUGGCA | 0.0463 | -0.14 | -0.0892 | -1.31
UGAUGUCACAGAUGUGACUCA | -0.773 | -1.09 | -0.677 | -0.946
CCACAUAGAUCAUCCAAAUCCUAAAGGAUUUUGUGACUUAAAAGG [SHAPE_invivo_SARS-CoV-2_Motif_251] | -0.167 | -0.169 | -0.357 | -0.137
GCUUUAGUCUACUUCUUGCAGAGUAUAAACUUUGUAAGAAUAAUAAUGAGGC [SHAPE_invitro_SARS-CoV-2_Motif_467] | 0.0529 | 0.0166 | -0.169 | -0.561
CUCUAUGACAAACUUGUUUCAAGCUUUUUGGAAAUGAAGAGUGAAAAGCAAGUUGAACAAAAGAUCGCUGAG | -0.302 | -0.314 | -0.291 | -0.00802
GCAAACAUACAACGUGUUGU [SHAPE_invitro_SARS-CoV-2_Motif_281] | -0.398 | -0.622 | -0.176 | -0.671
GAUAACAACUUC [SHAPE_invitro_SARS-CoV-2_Motif_16] | 0.519 | 0.252 | 0.0515 | -0.77
UAACAGUUACACCGGAAGCCAAUAUGGAUCAAGAAUCCUUUGGUGGUGCAUCGUGUUG | -0.833 | -0.9 | -0.365 | -0.452
ACAACAGGAGUCACCUUUUGU [DMSMaPseq_invitro_SARS-CoV-2_Motif_108] | -0.879 | -1.15 | -0.592 | -1.07

Sequence | pull-down binding Z-score [1] | pull-down binding Z-score (TO-N3 (biotin conjugate)) | pull-down binding Z-score [2] | pull-down binding Z-score [3]
GUUUUAAUUAUGCUUAUUAUCUUUUGGUUCUCACUUGAACUGCAAGAUCAUAAUGAAAC | -0.212 | -0.503 | -0.144 | -1.02
CCAAGGAAAUUUUGG | -0.192 | -0.373 | -0.382 | -0.948
CUUGAUGAUUUUGUUGAAAUAAUAAAAUCCCAAG | -0.466 | -0.636 | -0.266 | -0.743
GGAAUUGUGUUAAUUGUGAUACAUUCU [SHAPE_invitro_SARS-CoV-2_Motif_150] | -0.83 | -0.949 | -0.388 | -0.855
AAGUGCUUUUGUUAAUUUAAAACAAUUACCAUUU [SHAPE_invitro_SARS-CoV-2_Motif_354] | -0.729 | -0.977 | -0.225 | -0.811
UGGUUGGUUGGUUGGUUGGUUGGUUGGUUGGU [G4_r(UGGU)8] | 8.68 | 7.53 | 9.27 | 5.6
AACACUUCCCACAGAAGUGUU | -0.222 | 0.0543 | -0.407 | -0.817
CAUGCAAAUUACAUAUUUUGGAGGAAUACAAAUCCAAUUCAGUUGUCUUCCUAUUCUUUAUUUGACAUG | -0.857 | -1.08 | -0.152 | -0.803
GUCUAGCUGUCCACGAGUGCUUUGUUAAGCGUGUUGACUGGAC | -0.128 | -0.138 | -0.348 | -0.24
UAUGAGGUUUAGAAGAGCUUUUGGUGAAUACAGUCAUGUAGUUGCCUUUAAUACUUUACUAUUCCUUAUG | -0.502 | -0.62 | -0.231 | -0.84
CAGGUGACUUUGAUACUUACCUG [U1snRNP5ss-18] | -0.734 | -0.974 | -0.615 | -0.978
GGUACGUUAAUAGUUAAUAGCGUACUUCUUUUUCUUGCUUUCGUGGUAUUCUUGCUAGUUACACUAGCCAUCCUUACUGCGCUUCGAUUGUGUGCGUACU | 0.654 | 0.41 | -0.0614 | -0.294
AAGCUGAUGAGUACGAACUUAUGUACUCAUUCGUUU | -0.634 | -0.877 | -0.284 | -0.895
CUUGAACAAUGGAACCUAGUAAUAGGUUUCCUAUUCCUUACAUGGAUUUGUCUUCUACAAUUUGCCUAUGCCAACAGG | -0.5 | -0.466 | -0.181 | -0.374
CUGGCAGUAACCAG [SHAPE_invivo_SARS-CoV-2_Motif_538] | -0.215 | -0.233 | -0.422 | -0.733
UAGCUUGUUUUGUGCUUGCUG [SHAPE_invivo_SARS-CoV-2_Motif_507] | 0.134 | -0.0778 | -0.546 | -0.699
GUACUUAAUGAGAAGUGC [SHAPE_invivo_SARS-CoV-2_Motif_56] | -0.216 | -0.461 | -0.138 | -0.836
GUUGCGUCACCAAAUGAAUGCAAC | -0.989 | -1.3 | -0.49 | -1.2
GCAGCCAAACUAAUGGUUGU | 0.609 | 0.574 | 0.228 | 0.312
AAGGGGGCCGUGGGGUGGGAGCUGGGGAA [G4_2A2_BCL2] | 8.07 | 6.6 | 9.67 | 4.88
GGCAUCUGCGGGCC [IAV_invivo_NP_5_Motif_21+IAV_invivo_NP_5_Motif_21] | -0.637 | -0.759 | -0.641 | -0.239
AAAUUUACAAAACACCACCAAUUAAAGAUUUUGGUGGUUUUAAUUU [DMSMaPseq_invitro_SARS-CoV-2_Motif_425] | 1.34 | 1.06 | 0.331 | -0.725
GAAAUUUGACACCUUCAAUGGGGAAUGUCCAAAUUUU [SHAPE_invitro_SARS-CoV-2_Motif_22] | -0.726 | -0.92 | -0.434 | -0.988
GGUUGGGAAAUUGUUAAAUUUAUCUCAACC | -0.472 | -0.616 | -0.155 | -0.802
GGAUUGUACAGAAAGUGUGUUAAAUCC [SHAPE_invivo_SARS-CoV-2_Motif_47] | -0.22 | -0.222 | 0.139 | -0.185
CAUCGUUGAUAGUG [SHAPE_invitro_SARS-CoV-2_Motif_152] | 0.718 | 0.76 | 0.263 | 0.588
GGUUUAACUUCUAUUAAAUGGGCAGAUAACAACUGUUAUCUUGCCACUGCAUUGUUAACACUCCAACAAAUAGAGUUGAAGUUUAAUCC | -0.726 | -0.793 | -0.273 | -0.63
